PMC8219780, “The MLKL kinase-like domain dimerization is an indispensable step of mammalian MLKL activation in necroptosis signaling” (Cell Death & Disease, 2021)
Positions count from the first letter of the chain named. Names and notes keep the numbering of the source.

Experiments:
[1] = target: Flag-tagged mouse MLKL kinase-like domain, phosphomimic mutant S345D, expressed in HEK293T (mouse) (UniProt Q9D2Y4); test: cross-linking; whole-cell lysates of HEK293T cells expressing Flag-tagged MLKL KLD proteins (24 h); 500 uM DSG 30 min; SDS-PAGE, western blot anti-Flag
[2] = target: Flag-tagged human MLKL kinase-like domain, phosphomimic mutant T357ES358D, expressed in HEK293T (human); test: as above
[3] = target: human MLKL kinase-like domain, phosphor-sites' mutant T357A/S358A (179~471 aa), recombinant (human) (UniProt Q8NB16); test: cross-linking; purified recombinant MLKL KLD proteins with 500 uM DSG, 30 min, room temperature; stopped with 100 mM Tris-HCl pH 7.5; SDS-PAGE, Coomassie
[4] = target: the molecule itself; test: SEC; gel filtration of purified recombinant human MLKL KLD proteins on Superdex 75; fractions on SDS-PAGE, Coomassie; standards BSA 67 kDa, ovalbumin 44 kDa, ribonuclease A 14 kDa
[5] = target: the molecule itself; test: cross-linking; purified recombinant MLKL KLD proteins with 500 uM DSG, 30 min, room temperature; stopped with 100 mM Tris-HCl pH 7.5; SDS-PAGE, Coomassie
[6] = target: the molecule itself; test: SEC; gel filtration of purified His-Sumo tagged human MLKL (126~181 aa) on Superdex 200; fractions on SDS-PAGE, Coomassie

Flag-tagged mouse MLKL kinase-like domain, phosphomimic mutant S345D, expressed in HEK293T (from UniProt Q9D2Y4 192-456) (domain or fragment)
stoichiometry N [1]: 2

Flag-tagged human MLKL kinase-like domain, phosphomimic mutant T357ES358D, expressed in HEK293T (domain or fragment)
stoichiometry N [2]: 2

human MLKL kinase-like domain, phosphor-sites' mutant T357A/S358A (179~471 aa), recombinant (from UniProt Q8NB16 179-471) (domain or fragment)
stoichiometry N [3]: 2

B1: human MLKL kinase-like domain, phosphomimic mutant T357E/S358D (179~471 aa), recombinant (domain or fragment, UniProt Q8NB16 179-471, looked up)
chain: YLPPKCMQEIPQEQIKEIKKEQLSGSPWILLRENEVSTLYKGEYHRAPVAIKVFKKLQAGSIAIVRQTFNKEIKTMKKFESPNILRIFGICIDETVTPPQFSIVMEYCELGTLRELLDREKDLTLGKRMVLVLGAARGLYRLHHSEAPELHGKIRSSNFLVTQGYQVKLAGFELRKTQEDMSLGTTREKTDRVKSTAYLSPQELEDVFYQYDVKSEIYSFGIVLWEIATGDIPFQGCNSEKIRKLVAVKRQQEPLGEDCPSELREIIDECRAHDPSVRPSVDEILKKLSTFSK
notes: Mixed lineage kinase domain-like protein (MLKL), human, kinase-like domain, residues 179-471, T357E/S358D; GST removed with HRV3C protease; residues of the site may remain at the N-terminus; source: Sf9 insect cells (baculovirus), purified (Glutathione Sepharose 4B, on-column HRV3C digestion, Superdex 75 or 200); not shown: GST, N-terminal, cleaved
stoichiometry N [4]: 2

B2: human MLKL kinase-like domain, wild-type (179~471 aa), recombinant (domain or fragment, UniProt Q8NB16 179-471, looked up)
chain: B1 chain with E179T, D180S
notes: Mixed lineage kinase domain-like protein (MLKL), human, kinase-like domain, residues 179-471; residues of the site may remain at the N-terminus; also called MLKL KLD; WT; source: Sf9 insect cells (baculovirus), purified (Glutathione Sepharose 4B, on-column HRV3C digestion, Superdex 75 or 200); not shown: GST, N-terminal, cleaved
stoichiometry N [5]: 2

B3: His-Sumo tagged human MLKL (126~181 aa), internal coiled-coil region, wild-type (domain or fragment, UniProt Q8NB16 126-181, looked up)
chain: PISQGASWAQEDQQDADEDRRAFQMLRRDNEKIEASLRRLEINMKEIKETLRQYLP
notes: Vector PET-SUMO; also called internal coiled-coil in brace region; source: E. coli BL21(DE3), purified (NTA resin, Superdex 200)
binding result [6]: binds
